Measured values taken from US20210047402A1 (TENEOBIO, published 2021).

T1: human CD22 (human, UniProt P20273 20-687, limits assumed)
T1 construct: also called SIGLEC-2; human CD22 protein
T1 sequence (looked up): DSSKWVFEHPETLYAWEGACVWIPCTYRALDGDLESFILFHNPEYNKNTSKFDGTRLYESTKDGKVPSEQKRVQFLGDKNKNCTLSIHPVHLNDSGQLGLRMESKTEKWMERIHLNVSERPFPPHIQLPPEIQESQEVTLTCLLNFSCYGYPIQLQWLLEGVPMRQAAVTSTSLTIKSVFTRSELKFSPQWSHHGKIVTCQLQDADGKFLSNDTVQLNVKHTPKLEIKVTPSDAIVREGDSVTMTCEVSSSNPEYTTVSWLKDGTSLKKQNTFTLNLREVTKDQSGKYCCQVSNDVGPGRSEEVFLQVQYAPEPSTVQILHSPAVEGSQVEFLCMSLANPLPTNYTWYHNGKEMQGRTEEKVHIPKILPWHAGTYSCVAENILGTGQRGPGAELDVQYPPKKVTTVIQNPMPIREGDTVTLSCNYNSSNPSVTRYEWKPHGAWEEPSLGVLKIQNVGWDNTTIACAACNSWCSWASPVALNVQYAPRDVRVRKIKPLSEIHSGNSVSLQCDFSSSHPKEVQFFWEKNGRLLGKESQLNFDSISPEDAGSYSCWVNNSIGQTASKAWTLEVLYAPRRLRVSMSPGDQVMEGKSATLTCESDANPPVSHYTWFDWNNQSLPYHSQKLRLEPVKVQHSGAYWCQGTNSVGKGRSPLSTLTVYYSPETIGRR

B1: anti-CD22 heavy chain-only antibody Clone ID 335206 (antibody, V domains shown)
VH: QLQLQESGPGLVKPSETLSLTCTVSGDSISSGDYYWGWIRQPPGKGLEWIGHIYYSGATYYNPSLKNRVTISVDTSKNQFSLKLSSVTAADTAVYYCTREDSSNWRSRGQGTLVTVSS
notes: Heavy chain-only antibody (UniAb), no light chain
B2: anti-CD22 heavy chain-only antibody Clone ID 335173 (antibody, V domains shown)
VH: QLQLQESGPGLVKPSETLSLTCTVSGGSITSSSYYWGWIRQPPGKGLEWIGSIYYSGSTYYNPSLKSRVTISVDTSKNQFSLKLSSVTAADTAVYYCTRDDSSNWRSRGQGTLVTVSS
notes: as for B1
B3: anti-CD22 heavy chain-only antibody Clone ID 335218 (antibody, V domains shown)
VH: QLQLQESGPGLVKPSETLSLTCTVSGDSISSGDYYWGWIRQPPGKGLEWIGHIYYSGATYYNPSLKNRVTISVDTSRNQFSLKLSSVTAADTAVYYCTREDSSNWRSRGQGTLVTVSS
notes: as for B1
B4: anti-CD22 heavy chain-only antibody Clone ID 335160 (antibody, V domains shown)
VH: QLQLQESGPGLVKPSETLSLTCTVSGDSISSGDYYWGWIRQPPGKGLEWIGSIYYSGATYYNPSLKNRVTISVDTSKNQFSLKLSSVTAADTAVYYCTRDDSSNWRSRGQGTLVTVSS
notes: as for B1
B5: anti-CD22 heavy chain-only antibody Clone ID 335189 (antibody, V domains shown)
VH: QLQLQESGPGLVKPSETLSLTCTVSGGSISSSSYYWGWIRQPPGKGLEWIGSVYYTGATYYNPSLKNRVTISVDTSKNQFSLKLSSVTAADTAVYYCTRDDSSNWRSRGQGTLVTVSS
notes: as for B1
B6: anti-CD22 heavy chain-only antibody Clone ID 335195 (antibody, V domains shown)
VH: QLQLQESGPGLVKPSETLSLTCTVSGGSISSSSYYWGWIRQPPGKGLEWIGSIYYSGATYYNPSLKNRVTISVDTSRNQFSLNLSSVTAADTAMYYCTREDSSNWRSRGQGTLVTVSS
notes: as for B1
B7: anti-CD22 heavy chain-only antibody Clone ID 335158 (antibody, V domains shown)
VH: QLQLQESGPGLVKPSETLSLTCTVSGGSISSGDYYWGWIRQPPGKGLEWIGHIYYSGATYYNPSLKNRVTISVDTSRNQFSLKLSSVTAADTAVYYCTRDDSSNWRSRGQGTLVTVSS
notes: as for B1
B8: anti-CD22 heavy chain-only antibody Clone ID 335151 (antibody, V domains shown)
VH: QLQLQESGPGLVKPSETLSLTCTVSGDSISSGDYYWGWIRQPPGKGLEWIGHIYYSGATYYNPSLKNRVTISVDTSRNQFSLNLSSVTAADTAVYYCTRDDSSNWRSRGQGTLVTVSS
notes: as for B1
B9: anti-CD22 heavy chain-only antibody Clone ID 335162 (antibody, V domains shown)
VH: QLQLQESGPGLVKPSETLSLTCTVSGGSIISSSYYWGWIRQPPGKGLEWIGSIYYSGSAYYHPSLKSRVTISIDTSKNQFSLKLSSVTAADTAVYYCARDDSSNWRSRGQGTLVTVSS
notes: as for B1
B10: anti-CD22 heavy chain-only antibody Clone ID 335176 (antibody, V domains shown)
VH: QLQLQESGPGLVKPSETLSLTCTVSGDSISSGDYYWGWIRQPPGKGLEWIGHIYYSGATYYNPSLKNRVTISVDTSKNQFSLKLSSVTAADTAVYYCTRDDSSNWRSRGQGTLVTVSS
notes: as for B1
B11: anti-CD22 heavy chain-only antibody Clone ID 335203 (antibody, V domains shown)
VH: QLQLQESGPGLVKPSETLSLTCTVSGDSISSGDYYWGWIRQPPGKGLEWIGHIYYSGVTYYNPSLKNRVTISVDTSKNQFSLKLSSVTAADTAVYYCTREDSSNWRSRGQGTLVTVSS
notes: as for B1
B12: anti-CD22 heavy chain-only antibody Clone ID 335171 (antibody, V domains shown)
VH: QLQLQESGPGLVKPSETLSLTCTVSGGSISSSSYYWGWIRQPPGKGLEWIGSIYYSGATYYNPSLKNRVTISVDTSRNQFSLNLSSVTAADTAVYYCTRDDSSNWRSRGQGTLVTVSS
notes: as for B1
B13: anti-CD22 heavy chain-only antibody Clone ID 324508 (antibody, V domains shown)
VH: QLQLQESGPGLVKPSETLSLTCTVSGGSISSGDYYWGWIRQPPGKGLEWIGHIYYSGATYYNPSLENRVTISVDTSKNQFSLKLSSVTAADTAVYYCTRDDSSNWRSRGQGTLVTVSS
notes: as for B1
B14: anti-CD22 heavy chain-only antibody Clone ID 335186 (antibody, V domains shown)
VH: QLQLQESGPGLVKPSETLSLTCTVSGGSISSSSYYWGWIRQPPGKGLEWIGSIYYSGSTYYNPSLKSRVTISVDTSKNQFSLKLSSVTAADTAVYYCTRDDSSNWRSRGQGTLVTVSS
notes: as for B1
B15: anti-CD22 heavy chain-only antibody Clone ID 335170 (antibody, V domains shown)
VH: QLQLQESGPGLVKPSETLSLTCTVSGDSISSGDYYWGWIRQPPGKGLEWIGHIYYSGATYYNPSLKNRVTISVDTSRNQFSLKLSSVTAADTAVYYCTRDDSSNWRSRGQGTLVTVSS
notes: as for B1
B16: anti-CD22 heavy chain-only antibody Clone ID 335207 (antibody, V domains shown)
VH: QLQLQESGPGLVKPSETLSLTCTVSGDSISSGDYYWGWIRQPPGKGLEWIGHIYYSGVTYYNPSLKSRVTISVDTSRNQFSLKLSSVTAADTAVYYCTREDSSNWRSRGQGTLVTVSS
notes: as for B1
B17: anti-CD22 heavy chain-only antibody Clone ID 335182 (antibody, V domains shown)
VH: QLQLQESGPGLVKPSETLSLTCTVSGDSISSGDYYWGWIRQPPGKGLEWIGNIYYSGATYYNPSLKNRVTISVDTSKNQFSLKLSSVTAADTAVYYCTRDDSSNWRSRGQGTLVTVSS
notes: as for B1
B18: anti-CD22 heavy chain-only antibody Clone ID 335154 (antibody, V domains shown)
VH: QLQLQESGPGLVKPSETLSLTCTVSGDSISSGDYYWGWIRQPPGKGLEWIGHIYYSGVTYYNPSLKNRVTISVDTSKNQFSLKLSSVTAADTAVYYCTRDDSSNWRSRGQGTLVTVSS
notes: as for B1
B19: anti-CD22 heavy chain-only antibody Clone ID 335181 (antibody, V domains shown)
VH: QLQLQESGPGLVKPSETLSLTCTVSGDSISSGGYYWGWIRQPPGKGLEWIGHIYYSGATYYNPSLKNRVTISVDTSKNQFSLKLSSVTAADTAVYYCTRDDSSNWRSRGQGTLVTVSS
notes: as for B1
B20: anti-CD22 heavy chain-only antibody Clone ID 335150 (antibody, V domains shown)
VH: QLQLQESGPGLVKPSETLSLTCTVSGDSISSGDYYWGWIRQSPEKGLEWIGHIYYSGVTYYNPSLKNRVTISVDTSKNQFSLKLSSVTAADTAVYYCKRDDSSNWRSRGQGTLVTVSS
notes: as for B1
B21: anti-CD22 heavy chain-only antibody Clone ID 335188 (antibody, V domains shown)
VH: QLQLQESGPGLVKPSETLSLTCTVSGGSISSSSYYWGWIRQPPGKGLEWIGHIYYSGVTYYNPSLKNRVTISVDTSKNQFSLKLSSVTAADTAVYYCTRDDSSNWRSRGQGTLVTVSS
notes: as for B1
B22: anti-CD22 heavy chain-only antibody Clone ID 335201 (antibody, V domains shown)
VH: QLQLQESGPGLVKPSETLSLTCTVSGDSISSGDYYWGWIRQPPGKGLEWIGHIYYSGVTYYNPSLKNRVTISVDTSRNQFSLKLSSVTAADTAVYYCTREDSSNWRSRGQGTLVTVSS
notes: as for B1
B23: anti-CD22 heavy chain-only antibody Clone ID 335166 (antibody, V domains shown)
VH: QLQLQESGPGLVKPSETLSLTCTVSGGSISSSSYYWGWIRQPPGKGLEWIGSIYYSGSTYYNPSLKNRVTISVDTSRNQFSLNLSSVTAADTAVYYCTRDDSSNWRSRGQGTLVTVSS
notes: as for B1
B24: anti-CD22 heavy chain-only antibody Clone ID 335208 (antibody, V domains shown)
VH: QLQLQESGPGLVKPSETLSLTCTVSGGSISSSSYYWGWIRQPPGKGLEWIGSIYYSGATYYNPSLKNRVTISVDTSRNQFSLNLSSVTAADTAVYYCTREDSSNWRSRGQGTLVTVSS
notes: as for B1
B25: anti-CD22 heavy chain-only antibody Clone ID 335187 (antibody, V domains shown)
VH: QLQLQESGPGLVKPSETLSLTCTVSGGSISSSSYYWGWIRQPPGKGLEWIGHIYYSGATYYNPSLKNRVTISVDTSKNQFSLKLSSVTAADTAVYYCTRDDSSNWRSRGQGTLVTVSS
notes: as for B1
B26: anti-CD22 heavy chain-only antibody Clone ID 335159 (antibody, V domains shown)
VH: QLQLQESGPGLVKPSETLSLTCTVSGGSISSSSYYWGWIRQPPGKGLEWIGHIYYSGVTYYNPSLKNRVTISVDTSKNQFSLKLSSVTAADTAAYYCTRDDSSNWRSRGQGTLVTVSS
notes: as for B1
B27: anti-CD22 heavy chain-only antibody Clone ID 335185 (antibody, V domains shown)
VH: QLQLQESGPGLVKPSETLSLTCTVSGDSISSGDYYWGWIRQPPGKGLEWIGHIYYSGATYYNPSLKNRVTISVDTSRNQFSLNLSSVTAADTAVYYCTREDSSNWRSRGQGTLVTVSS
notes: as for B1
B28: anti-CD22 heavy chain-only antibody Clone ID 335210 (antibody, V domains shown)
VH: QLQLQESGPGLVKPSETLSLTCTVSGGSISSGDYYWGWIRQPPGKGLEWIGHIYYSGATYYNPSLKNRVTISVDTSRNQFSLKLSSVTAADTAVYYCTREDSSNWRSRGQGTLVTVSS
notes: as for B1
B29: anti-CD22 heavy chain-only antibody Clone ID 335161 (antibody, V domains shown)
VH: QLQLQESGPGLVKPSETLSLTCTVSGDSISSGDYYWGWIRQPPGKGLEWIGHIYYSGATYYNPSLENRVTISVDTSKNQFSLKLSSVTAADTAVYYCTRDDSSNWRSRGQGTLVTVSS
notes: as for B1

The binders below were run against T1, human CD22 (assay: ELISA protein and cell-binding assays).

Binding result, binds:
B1
B2
B3
B4
B5
B6
B7
B8
B9
B10
B11
B12
B13
B14
B15
B16
B17
B18
B19
B20
B21
B22
B23
B24
B25
B26
B27
B28
B29
